Residue numbers refer to the chain shown, from its start. Numbers in names are those of the source. Where two headings read alike, the source gives them in different places. Where only a bound is given, the exact number is not on record here.

Series [1] in a line: Thermal stability of purified UBP candidates (SYPRO Orange thermal melt, Roche LightCycler). Format: physicochemical. The conditions noted are these: apo-protein; SYPRO Orange monitors unfolded protein. Here is the method:
The urea-binding properties of these leads were determined experimentally (Table 4). These experiments comprise four successive steps: • 1. Synthetic gene construction. […] Heterologous protein expression of the homologues in E. coli. […] Verification of urea binding.
Analysis of urea-binding properties using thermal melts.

Series [2] in a line: Urea titration of emission intensity spectra (Nanodrop3300) with ratiometric analysis, singly labeled conjugates. On the set-up: key to Acrylodan Intensity / Badan Intensity: +, increases in response to urea; −, decreases; 0, no change; key to Badan Dipoles / Acrylodan Dipoles: blue, (maxima <500 nm); g, green (maxima >500 nm); b/g, mixed population; key to Acrylodan Shape / Badan Shape: m, monochromatic; d, dichromatic (i.e. spectral shape changes); 0, no change. The conditions noted are these: for Acrylodan Shape / Badan Shape: emission spectrum shape change on urea; for Acrylodan Dipoles / Badan Dipoles: estimated change in populations of major emission bands; for Badan Intensity / Acrylodan Intensity: emission intensity change on urea; for Kd: urea. Format: binding. An excerpt: Determination of emission intensity spectra.
(§1) Ratiometric analysis of urea binding. […] 2
(§2) For a single urea-binding site, the fractional saturation is given by
(§3) [formula] where [L] is the ligand (urea) concentration and Kd the dissociation constant, ^trueKd for ytrue.
[formula] where ^appIλ2 and ^satIλ2 are the emission intensities of the monochromatic signal at wavelength λ2 of the ligand-free and ligand-bound protein, respectively.

Series [3] can be described thus: Temperature- and urea-dependent fluorescence landscapes of fluorescent conjugates (Roche LightCycler). Format: binding. The conditions noted are these: fluorescent response to urea. On the set-up: key: y, yes; n, no. Here is the method:
We constructed 20 single cysteine mutants in csUBP7, exploring 7 endosteric, 12 peristeric, and 1 allosteric position (FIG. 9). At each position we attached the Prodan-derived fluorophores Acrylodan and Badan, which differ by one methylene group in their thiol-reactive linker. The fluorescent responses of these conjugates was determined initially as a function of urea concentration and temperature (FIG. 10). […] The ligand dependence of the emission spectra shapes was determined for these conjugates (Table 8).
Determination of temperature- and ligand-dependent fluorescence landscapes. […] Urea concentrations were varied from 0-4.8 M in 20 mM KCl, 20 mM MOPS (pH 7.4). […] Temperatures were advanced in 1K steps.
as §1, §2, §3
To obtain the temperature dependence of the binding reaction, the Kd values of all the individually determined isotherms were fit the Gibbs-Hemholtz equation (Layton and Hellinga, 2010, Biochemistry, 49, 10831-41):
[formula] where ΔGb^•(T) is the standard free energy of binding at 1 M ligand at temperature T,
[formula] Δ^refHb^• and Δ^refSb^• the molar enthalpy and entropy of binding, respectively, at the reference temperature, Tref, and ΔCp,b the heat capacity of the binding reaction.

The mark [4] stands for this setting: csUBP7 Badan conjugate, read-out: Badan ^trueKd.

B1: csUBP7: urea-binding protein from Caldicellulosiruptor saccharolyticus, C89A, SEQ ID NO: 18 (protein)
chain: MSSSESEKEKSEETIKVGILHSLSGTMSISEVSLKDAELMAIEEINNNGGVLGKKLEPIVEDGASDWPTFAEKAKKLLQKDKVAVIFGAWTSASRKAVLPVVEENNGLLFYPVQYEGLESSPNIFYMGAAPNQQIVPAVKWLFDNGKKRFYLLGSDYVFPRTANKIIKAYLKYLGGVVVGEEYTPLGHTDYSSVINKIKAAKPDVVFNTLNGDSNVAFFKQLKDAGIDANTLPVMSVSIAEEEIKGIGPEYLKGHLVTWNYFQSVDTPENKEFVEKYKKKYGEDRVTDDPIEAAYIGVYLWAKAVEKAGSTDVDKVREAAKGIEFNAPEGPVKIDGDNQHLYKTVRIGEILENGQIRELWKTNKPVKPDPYLKGYEWAQGLSEQGGSHHHHHH
modifications: csUBP7 (with signal peptide replaced with M and a GGSHHHHHH at C-terminus, and also comprising a C89A substitution)
For the molecule B1, the “Thermostability ^apoTm” value in series [1] was 67 °C.

B2: csUBP7 N211C: csUBP7 211C cysteine mutant (SEQ ID NO: 41), tested as Acrylodan and Badan conjugates (conjugate)
chain: B1 chain with N211C
modifications: Acrylodan or Badan conjugate; csUBP7_211C (211C substitution mutant with signal peptide replaced with M and a GGSHHHHHH at C-terminus, and also comprising a C89A substitution)
Take B2: in series [2] (csUBP7 Acrylodan conjugate), the “Acrylodan Shape” value came to 0 and the “Acrylodan Dipoles” value is “g (g, green (maxima >500 nm))”. In series [2] (csUBP7 Badan conjugate), the “Badan Intensity” value was “+”, the “Badan Shape” value was “d” and the “Badan Dipoles” value is on record as “g→b/g”. In addition, the Kd in series [2] (setting [4]) worked out at 15 mM. In addition, in series [3] (Acrylodan conjugate), the Response entry is on record as “y”. Moreover, the Response result in series [3] (Badan conjugate) is “y”.

B3: csUBP7 L186C: csUBP7 186C cysteine mutant (SEQ ID NO: 40), tested as Acrylodan and Badan conjugates (conjugate)
chain: B1 chain with L186C
modifications: Acrylodan or Badan conjugate; csUBP7_186C (186C substitution mutant with signal peptide replaced with M and a GGSHHHHHH at C-terminus, and also comprising a C89A substitution)
On to B3, for which, in series [2] (csUBP7 Acrylodan conjugate), the “Acrylodan Intensity” value is “−”, the “Acrylodan Shape” value is recorded as “d” and the “Acrylodan Dipoles” value is “b/g→g”. For the same molecule, in series [2] (csUBP7 Badan conjugate), the “Badan Shape” value turned out to be 0 and the “Badan Dipoles” value is listed as “g (g, green (maxima >500 nm))”. Further, the Response result in series [3] (Acrylodan conjugate) is “y”. Further, the Response entry in series [3] (Badan conjugate) is given as “n”.

B4: csUBP7 Y157C: csUBP7 157C cysteine mutant (SEQ ID NO: 37), tested as Acrylodan and Badan conjugates (conjugate)
chain: B1 chain with Y157C
modifications: Acrylodan or Badan conjugate; csUBP7_157C (157C substitution mutant with signal peptide replaced with M and a GGSHHHHHH at C-terminus, and also comprising a C89A substitution)
On to B4, for which, in series [2] (csUBP7 Acrylodan conjugate), the “Acrylodan Intensity” value is listed as “+” and the “Acrylodan Shape” value is given as “m”. Moreover, the Kd in series [2] (csUBP7 Acrylodan conjugate, read-out: Acrylodan ^trueKd) came to 3.4 mM. Besides, in series [2] (csUBP7 Badan conjugate), the “Badan Intensity” value was “+”, the “Badan Shape” value is given as “m” and the “Badan Dipoles” value is given as “b/g”. The Kd in series [2] (setting [4]) worked out at 16 mM. The Response entry in series [3] (Acrylodan conjugate) was “y”. Moreover, in series [3] (Badan conjugate), the Response result is “y”.

B5: gkUBP10: urea-binding protein from Geobacillus kaustophilus with FATT domain, SEQ ID NO: 20 (protein)
chain: MAEESDNVDSADAEEDDSDVWWGGADTDYADGSEDKVVEVAEEEEVAEVEEEEADDDEDDEDGDEVEEEAEEPYEEATERTTSIATTTTTTTESVEEVLEVLFQGPASSAVDQAKNENKKDSSSASKEGDTVKVGILHSLSGTMAISEVSLRDAELMAIEEINASGGLLGKKIEPVVEDGASDWPTFAEKAKKLLQKDQVAAIFGGWTSASRKAMLPVVEQNNGLLWYPVQYEGMESSPNIFYTGATTNQQIVPAVSWLLKNRGKTFFLLGSDYVFPRTANKIIKAQLKAEGGQVVGEEYTPLGHTDYSTIISKIKQVKPAVVFNTLNGDSNVAFFKQLKDAGITPKDVTVMSVSIAEEEIRGIGPDVLAGHLAVWNYFQTTDTPENKAFVQKYKEKYGQDRVTDDPIEAAYTAVHLWAEAVKKAGSFDVDQVKKAAAGLEYKAPEGTVKIDGETQHLWKTVRIGEIQADGQFKELWNSGQPVKPDPYLKSYPWAKGLSEGGSHHHHHHHH
modifications: gkUBP10 (with signal peptide replaced with M, which is followed by a FATT domain, followed by a sequence fragment for C3 protease, and with a GGSHHHHHH at C-terminus)
Consider B5, for which the “Thermostability ^apoTm” value in series [1] was greater than 100 °C.

B6: ctUBP6: urea-binding protein from Clostridium thermocellum, SEQ ID NO: 17 (protein)
chain: MVEEPVDNKPGTDTSAEDTIKVGILHSLSGTMAISEVSLKDAELMAIEEINQAGGLLGKKIEPVIEDGASDWPTFAEKAKKLLQNDKVATVFGCWTSASRKAVLPVFEENNGLLWYPVQYEGMESSPNIFYTGAAPNQQIVPAVEWLLENKGKRFFLLGSDYVFPRTANKIIKAQLSAIGGELIAEEYTPLGHTDYSTIVNKIKTAKPDVVFNTLNGDSNVAFFKQLKDAGITSEDITVCSVSVAEEEIRGIGAENIKGHLVSWNYYQTTDTPENKEFVEKYKSKYGSDRVTDDPIEAAYIAVHLWAEAVKKAGSFEVEKVKEAAKGLEFKAPEGLVKIEGENQHLWKPVRIGEVQEDGLIKEIWSTSEAVRPDPYLKTYDWAKGLSDGGSHHHHHH
modifications: ctUBP6 (with signal peptide replaced with M and a GGSHHHHHH at C-terminus)
As for B6, the “Thermostability ^apoTm” value in series [1] came out at 89 °C.

B7: psUBP11: urea-binding protein from Paenibacillus sp. with FATT domain, SEQ ID NO: 21 (protein)
chain: MAEESDNVDSADAEEDDSDVWWGGADTDYADGSEDKVVEVAEEEEVAEVEEEEADDDEDDEDGDEVEEEAEEPYEEATERTTSIATTTTTTTESVEEVLEVLFQGPKETAPTAGAGNGSPPVEAAGDSIKVGILHSLSGTMAISEVSVKDAEMLAIEEINAAGGVLGKQIEPVIEDGASDWPTFAEKAGKLLQQDKVAAVFGGWTSASRKAMLPVFEQNHGLLFYPVQYEGLESSPNIFYTGATTNQQIVPSVSWLLENRGKKMFLLGSDYVFPRTANKIIKAQLTAEGGELAGEEYTPLGHTDFSTIIAKIKEAKPDIVYNTLNGDSNVAFFKQLKDAGTTSKDMTTLSVSVAEEEIRGIGADILEGHLAAWNYYQSTDTPENKAFVDKYKAKYGADRVTADPIEAGYTAVYLWKAAVEKAGTTDVDKVKEAAKGIEFAAPEGKVTIDGDNQHIHKTVRIGEVQADGQFKELWNSGEPVKPDPYLKTYDWAKGLSGEGGSHHHHHH
modifications: psUBP11 (with signal peptide replaced with M, which is followed by a FATT domain, followed by a sequence fragment for C3 protease, and with a GGSHHHHHH at C-terminus)
With B7, the “Thermostability ^apoTm” value in series [1] stood at 80 °C.
